B1: Azoarcus group I ribozyme (parent)
chain: GUGCCUUGCGCCGGGAAACCACGCAAGGGAUGGUGUCAAAUUCGGCGAAACCUAAGCGCCCGCCCGGGCGUAUGGCAACGCCGAGCCAAGCUUCGGCGCCUGCGCCGAUGAAGGUGUAGAGACUAGACGGCACCCACCUAAGGCAAACGCUAUGGUGAAGGCAUAGUCCAGGGAGUGGCGAAAGUCACACAAACCGG

In this data set the parent is B1. The data set is described as follows: reverse-splicing fitness (ratio to wild type); higher = more active; in vitro selection; Mg2+ level not given. Summed up: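 An in vitro group I ribozyme library with randomized positions was T7-transcribed and gel-purified. In triplicate, 10 pmol RNA in EPPS pH 7.5 was reacted with 50 pmoles of a 30-nt RNA substrate for 1 h at 37 °C across several added MgCl2 levels (1–48 mM), then stopped with EDTA. Products were reverse transcribed from a substrate-complementary primer, PCR-amplified and sequenced (HiSeq 4000). Fitness is a variant's read proportion after selection over that before, normalised to wild type.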
As to C82G A111U A120C A145C C150A C169A, the reverse-splicing fitness came out at 0.01.
As for C82G A111G C150A C169A U176A, the reverse-splicing fitness came to 0.0211.
With C82A A111U A120C A145U C150G C169G, the reverse-splicing fitness is 0.00869.
C82U A111G A120C A145G C150U C169A U176G: the reverse-splicing fitness is 0.00429.
A120C A145U C150G C169G: the reverse-splicing fitness was found to be 0.00781.
As to C82U A111G A120G A145G, the reverse-splicing fitness was 0.0164.
On to C82G A111U A145C C169A U176A, for which the reverse-splicing fitness came to 0.0121.
As for C82A A111U A120G C150A C169G, the reverse-splicing fitness turned out to be 0.0102.
On to C82A A120U A145G C150G C169U, for which the reverse-splicing fitness came out at 0.00784.
The figure for C82G A111U A120U A145C C150A C169G U176C is 0.00259; for C82A A111C A120C A145C C150U C169A U176C it is 0.0112; for C82A A111C A120U A145G C150A C169G U176C it is 0.00514.
For C82U A111G A120U A145G C169A the value was 0.00248; for C82U A111G A120C A145G C150A C169U U176C, 0.014; for C82G A120U A145U C150G C169G U176C, 0.0022.
For A111C A120G A145U C150U U176C the value was 0.0338; for C82A A111C A120C A145G C150A C169A U176C, 0.019.
For the variant C82U A111C A145C C150U C169A U176A, the reverse-splicing fitness turned out to be 0.011.
As to C82A A120U A145C U176G, the reverse-splicing fitness turned out to be 0.00979.
On to A111C A120G A145C U176C, for which the reverse-splicing fitness is 0.0361.
For A111G A145C C150G C169G, the reverse-splicing fitness amounted to 0.018.
C82G A111C A120U A145G C150A C169A U176G: the reverse-splicing fitness was determined as 0.0032.
Take C82U C150A C169U: the reverse-splicing fitness was 0.0105.
With A120C A145C C169G U176A, the reverse-splicing fitness stood at 0.0163.
For C82U A120C A145U C169U the value was 0.0193; for C82G A120C C150U U176C, 0.0574; for C82U A111G A120U C150G C169U, 0.004.
Take A111C C150U C169A: the reverse-splicing fitness stood at 0.0198.
The figure for C82A A111U A120C A145C U176G is 0.00578; for A111G A120U C150U C169G it is 0.0472; for C82U A120C C150U C169A U176G it is 0.00426.
For A111G A120C A145C C150A U176G the value was 0.0123; for C82U A111C A120U C150U C169U U176C, 0.00387.
As to C82U A111C A120U C150U C169U U176A, the reverse-splicing fitness is 0.00612.
Turning to C82G A111U A145U C150G C169A U176G, the reverse-splicing fitness turned out to be 0.00706.
For A111G A120G A145C C150G C169U U176G the value was 0.00502; for C82A A120G A145G C150G C169A U176A, 0.0138; for C82U A111U A120U A145C C150A C169U, 0.00254.
Take C82A A111U A120U A145U C150G C169U U176A: the reverse-splicing fitness came to 0.00308.
Regarding C82U A111U A120C A145U C169A U176A, the reverse-splicing fitness was 0.00849.
As for C82G A120U A145G C150A U176C, the reverse-splicing fitness was 0.014.
Take A111U A120U C150A C169U U176G: the reverse-splicing fitness amounted to 0.00212.
As to C82G A111C A120C A145U C150G C169U U176C, the reverse-splicing fitness came to 0.0121.
A111U A145U C150U C169G U176G: the reverse-splicing fitness stood at 0.00643.
Regarding C82A A145C C150U C169G U176A, the reverse-splicing fitness was 0.0196.
C82A A111C A120C C169G U176G: the reverse-splicing fitness was found to be 0.00756.
The figure for C82G A111C A120U C169A U176C is 0.00457; for C82G A111C A120G A145G C150U C169U U176G it is 0.00501; for C82G A111C A120G A145G C150U C169U U176C it is 0.0145.
Regarding C82U A120U A145G C150U C169G U176G, the reverse-splicing fitness worked out at 0.0018.
Consider C82G A111U A120C C150G C169G, for which the reverse-splicing fitness came out at 0.00753.
On to C82G A120G A145G C150A C169U U176G, for which the reverse-splicing fitness was found to be 0.00581.
For the variant C82U A111U A120G A145U C150U, the reverse-splicing fitness is 0.0114.
As to C82U A111C A120U, the reverse-splicing fitness worked out at 0.0257.
On to C82G A111U A145G C150A C169G U176C, for which the reverse-splicing fitness turned out to be 0.0282.
Consider C82G A111U A120U A145U C150G C169U U176C, for which the reverse-splicing fitness was found to be 0.0029.
For the variant C82U A111C A120C C150G C169A U176A, the reverse-splicing fitness stood at 0.00943.
C82U A111G A120U C150G C169G U176C: the reverse-splicing fitness is 0.00318.
On to C82G A120U A145C C150G C169G U176A, for which the reverse-splicing fitness is 0.00247.
Consider C82G A111C A120G A145U C169A U176C, for which the reverse-splicing fitness worked out at 0.00997.
Consider A111G A145G C150G U176C, for which the reverse-splicing fitness was 0.184.
C82U A145G C150G C169U U176C: the reverse-splicing fitness is 0.0132.
On to C82A A111G A120C C150G C169A U176G, for which the reverse-splicing fitness worked out at 0.00791.
Take A111C A120U A145G C169U U176C: the reverse-splicing fitness came out at 0.0232.
As to A111G A145G C150U C169G U176A, the reverse-splicing fitness worked out at 0.0289.
As for C82A A111G A120G A145G C150A C169U U176G, the reverse-splicing fitness turned out to be 0.00673.
The figure for C82A A120U A145G C150G U176A is 0.00758; for A111G A120C A145C C150G C169U U176A it is 0.00771; for C82G A111G A120C A145C C150G C169A it is 0.00872.
Take C82A A111C A120U A145G C150G U176A: the reverse-splicing fitness came to 0.00763.
On to C82A A111U A120C C150U C169U U176C, for which the reverse-splicing fitness amounted to 0.0145.
Regarding A120G C150G U176C, the reverse-splicing fitness is 0.0392.
Take C82A A145C C150A: the reverse-splicing fitness amounted to 0.0312.
Consider C82G A111C A120G C169U U176G, for which the reverse-splicing fitness turned out to be 0.00516.
Turning to C82U A111G A120C A145U C150G C169G U176C, the reverse-splicing fitness turned out to be 0.00388.
As for C82G A111G A120U A145U U176G, the reverse-splicing fitness was determined as 0.00582.
For the variant C82G A111U A120G A145C C150A C169U U176C, the reverse-splicing fitness stood at 0.0103.
As for C82U A111G C150G C169A U176C, the reverse-splicing fitness stood at 0.0121.
Take A120G A145U U176G: the reverse-splicing fitness was 0.0162.
Consider C82A U176A, for which the reverse-splicing fitness was found to be 0.407.
Regarding A120U A145C C169A, the reverse-splicing fitness amounted to 0.0147.
With A145G C150G U176A, the reverse-splicing fitness stood at 0.256.
The figure for A111U A120C A145C C169U U176G is 0.00517.

For the origin of these results see the RNAGym collection of RNA variant scans (doi:10.1093/molbev/msab373).
